Laboratory results: the supplement of paper PMC12855868

B1: library; numbered along this chain (parent)
chain: MAAAGGARLLRAASAVLGGPAGRWLHHAGSRAGSSGLLRNRGPGGSAEASRSLSVSARARSSSEDKITVHFINRDGETLTTKGKVGDSLLDVVVENNLDIDGFGACEGTLACSTCHLIFEDHIYEKLDAITDEENDMLDLAYGLTDRSRLGCQICLTKSMDNMTVRVPETVADARQSIDVGKTS

Variants of: B1
Test: scaled log2 fold change in cell abundance, elesclomol vs control (0 = silent mean, 1 = nonsense mean) (scaled log2 ratio); higher = higher viability under elesclomol (loss of FDX1 cuproptosis function)
Settings: glucose 10 mM
Procedure: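 Deep mutational scan of full-length human FDX1: a pooled saturation-mutagenesis ORF library (every residue 2-184 mutated to all 19 amino acids plus stop, and silent codons where available) was expressed by lentivirus in FDX1-knockout ABC1 (14 days) or HEK293T (11 days) cells grown with elesclomol (ES) or DMSO control. Variant abundance came from ORF sequencing. The log2 fold change (ES vs control, mean of duplicates) was centred on the silent-variant mean (0) and scaled to the nonsense-variant mean (1). Higher values mean greater viability under ES, i.e. loss of FDX1 function in cuproptosis.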

[1] = with ABC1 FDX1 KO, elesclomol 5 nM, 14 days
[2] = with HEK293T FDX1 KO, elesclomol 40 nM, 11 days
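Note: variant abundance is its share of total variant reads in each endpoint sample, from next-generation sequencing of the integrated ORF PCR-amplified out of genomic DNA.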

| Variant | scaled log2 fold change [1] | scaled log2 fold change [2] |
| --- | --- | --- |
| R58E | -0.288 | -0.142 |
| R58N | -0.417 | -0.0662 |
| R58P | 0.228 | 0.00503 |
| R58I | -0.339 | 0.608 |
| R58C | 0.0658 | -0.099 |
| R58L | -0.211 | 0.174 |
| R58K | 0.151 | -0.231 |
| R58A | 0.173 | 0.434 |
| R58Y | -0.339 | -0.258 |
| R58Q | 0.0532 | -0.891 |
| R58H | 0.4 | -0.194 |
| R58D | -0.139 | -0.303 |
| R58V | 0.434 | 1.47 |
| R58W | 0.133 | 0.3 |
| R58G | -0.484 | 0.743 |
| R58M | 0.306 | -0.781 |
| R58S | 0.12 | -0.815 |
| R58F | -0.105 | -0.229 |
| R58T | -0.167 | -0.0694 |
| L53Q | -0.164 |  |
| L53Y | -0.194 | -0.569 |
| L53A | 0.205 | 0.346 |
| L53G | -0.239 | -1.17 |
| L53K | 0.299 | 0.00452 |
| L53F | 0.298 | -0.0243 |

| Variant | scaled log2 fold change [1] | scaled log2 fold change [2] |
| --- | --- | --- |
| L53W | 0.155 | 0.498 |
| L53C | 0.0732 | -0.0888 |
| L53N | 0.146 |  |
| L53H | 0.262 | -0.0475 |
| L53E | 0.206 | -0.803 |
| L53P | 0.118 |  |
| L53S | -0.175 | 0.73 |
| L53T | 0.163 | -0.488 |
| L53I | -1.25 |  |
| L53R | 0.0529 | -0.455 |
| L53V | 0.281 | -0.11 |
| L53D | -0.0291 |  |
| L53M | 0.133 | 0.406 |
| S56T | 0.0393 | 1.19 |
| S56D | -0.745 | 0.383 |
| S56M | -0.109 | 0.0191 |
| S56E | 0.234 | 0.0723 |
| S56R | 0.43 |  |
| S56G | -1.11 | 0.888 |
| S56F | 0.177 |  |
| S56I | -0.125 | -0.305 |
| S56P | 0.19 |  |
| S56N | 0.0549 | 1.09 |
| S56C | -0.222 | -0.162 |
| S56Q | -0.214 | 0.782 |

| Variant | scaled log2 fold change [1] | scaled log2 fold change [2] |
| --- | --- | --- |
| S56K | -0.052 | 0.357 |
| S56V | 0.301 | -0.368 |
| S56W | -0.00445 | 0.0272 |
| S56A | 0.574 |  |
| S56Y | -0.541 | 0.934 |
| S56L | 0.557 | 1.06 |
| S56H | 0.238 | 0.979 |
| S62W | -0.132 |  |
| S62A | -0.86 | -0.876 |
| S62M | 0.0792 |  |
| S62F | 0.075 | 0.425 |
| S62D | 0.269 | 1.05 |
| S62R | -0.893 | 0.128 |
| S62Y | -0.427 |  |
| S62T | -0.0712 | -0.205 |
| S62I | 0.0619 | -0.0402 |
| S62K | 0.104 | 1.13 |
| S62Q | 0.0996 | 0.145 |
| S62E | 0.0386 |  |
| S62H | -0.223 | 0.729 |
| S62N | 0.0847 | -0.479 |
| S62G | -0.00606 | 0.141 |
| S62L | 0.0177 | 0.0918 |
| S62C | -0.366 | -0.138 |
| A57R | 0.224 | 0.591 |

| Variant | scaled log2 fold change [1] | scaled log2 fold change [2] |
| --- | --- | --- |
| A57L | -0.263 | 0.149 |
| A57S | 0.247 | 0.0851 |
| A57C | 0.479 |  |
| A57V | -0.164 | 0.356 |
| A57N | 0.029 | 0.245 |
| A57D | 0.102 | -0.382 |
| A57W | -0.231 | 0.0227 |
| A57F | -0.681 | -0.202 |
| A57I | 0.296 |  |
| A57Q | 0.12 | -0.354 |
| A57T | 0.0138 | -0.39 |
| A57E | -0.0705 | -0.933 |
| A57H | 0.158 | -0.799 |
| A57G | -0.0446 | 1.2 |
| A57K | 0.162 | -1.1 |
| A57Y | -0.233 | 0.129 |
| A57M | -0.0569 | -0.0232 |
| V55P | -0.481 | 1.06 |
| V55K | -0.469 | -0.443 |
| V55R | 0.114 | 0.865 |
| V55W | 0.0864 | -0.549 |
| V55Q | 0.177 | -0.526 |
| V55F | 0.0901 | -0.339 |
| V55G | 0.169 | -0.106 |
| V55C | 0.313 | 0.374 |

| Variant | scaled log2 fold change [1] | scaled log2 fold change [2] |
| --- | --- | --- |
| V55I | 0.323 | 1.26 |
| V55Y | 0.0351 |  |
| V55S | 0.162 | -0.104 |
| V55L | -0.283 |  |
| V55D | -0.0142 |  |
| V55M | 0.374 | 0.955 |
| V55H | 0.0403 | 1.23 |
| V55T | 0.178 | -0.356 |
| V55N | -0.28 | 0.815 |
| V55E | -0.307 |  |
| E64H | -0.531 | -0.334 |
| E64G | -0.323 | 0.0488 |
| E64A | -0.335 | 1.19 |
| E64D | 0.0681 | -0.0197 |
| E64C | -0.0781 | 0.793 |
| E64F | 0.0956 |  |
| S63L | 0.0558 | -0.251 |
| S63W | 0.527 | 0.0977 |
| S63E | 0.199 | -0.451 |
| S63P | 0.175 | 0.000753 |
| S63I | -1.11 | 0.315 |
